Experimental data from article PMC4338613.

Legend:
Experiment in all cases: co-IP
[1] = target: LAP-tagged FUS/TLS P525L (human) (UniProt P35637)
[2] = target: LAP-tagged FUS/TLS R521G (human) (UniProt P35637)
[3] = target: LAP-tagged FUS/TLS R495X (human) (UniProt P35637)

Measured: fold reduction of association against wild-type FUS/TLS

Sm-B/D (components of Sm core)
5 fold: [1] | [2] | [3]
